Measured values reported in patent publication US20260139035A1 (published 2026).

B1: 1-58 antibody (antibody, V domains shown)
VH: QVQLVQSGAEVKKPGASVRVSCKASGYSFTASYMHWVRQAPGQGLEWMAIINPGDDNTSYAQKFQGRVTLTRDTSTTTVYMELRSLRSEDTAVYYCTRSTRDYVWGNYRYTPGYYLDYWGQGTLVTVSS
VL: DIRMTQSPSSLSASVGDRVTITCRASQTISNYLNWYQQKPGKAPKLLIYAASSLQSGVPSRFSGSGSGTDFTLTISSLQPEDFATYYCQQGYITPITFGQGTRLEIK
B2: 1-44 antibody (antibody, V domains shown)
VH: EVQLVESGGGVVQPGSSLRLSCAASGFTFRSHAMHWVRQAPGKGLEGVAVIWYDGSNKYYADSVKGRFTISRDNSKNTLYLQMNSLRAEDTAVYYCAREGIAVPGNGADAFDIWGQGTMVTVSS
VL: DIQMTQSPSSLSASVGDRVTITCRASQSIGNFLNWYQQKPGKAPKLLIYAASSLQSGVPSRFSGSGSGTDFTLTISSLQPEDFATYYCQQTYSTPYTFGQGTKLEIK
B3: 3-1 antibody (antibody, V domains shown)
VH: EVQLVQSGAEVKKPGESLKISCKGSGYIFTNYWIGWVRQMPGKGLEWMGIINPRDSDTRYSPSFQGQVTISTDKSINTAYLQWSSLKASDTAMYYCARQQGGFGDLGAYNWFDPWGQGTLVTVSS
VL: not shown
B4: 4-66 antibody (antibody, V domains shown)
VH: EVQLVESGGGLVQPGGSLRLSCAASGIIVSRNYMTWVRQAPGKGLEWVSVIYSGGTTYYADSVKGRFTTSRDDSKNTLYLQMNSLRGDDTAVYYCARDPPHRRGSYWGQGTLVTVSS
VL: DILMTQSPSSLSASVGDRVTITCQASQDINKYLNWYQQKPGKAPKLLIYDASNLETGVPSRFSGSGSGTDFSFTISSLQPEDVATYYCQQSDNLPPTFGQGTNVEIK

Each binder was assayed against RBD of the SARS-CoV-2 spike protein (Cayman Chemical kit #502050) (UniProt P0DTC2 319-541).
Work on B1 yielded an IC50 of 0.028 mg/L. B2 gave an IC50 of 0.013 mg/L. For B3, the IC50 was 0.031 mg/L. In the case of B4, the IC50 is reported as 0.015 mg/L.
